Where no end group is shown, it is not given here. [ ]: non-standard residue; d: D form. The star is where a group is joined. Myristoyl = CCCCCCCCCCCCCC(=O)*; pS = N[C@@H](COP(=O)(O)O)C(=O)O
Biological target: wild-type (WT) GSK-3β (human, UniProt P49841 1-420, phosphorylated at Tyr 216 (shown by western blot))
Assay: cell-based or functional assay

Chain of wild-type (WT) GSK-3β (P49841 other isoform, or with tags, fused parts or gaps limits assumed): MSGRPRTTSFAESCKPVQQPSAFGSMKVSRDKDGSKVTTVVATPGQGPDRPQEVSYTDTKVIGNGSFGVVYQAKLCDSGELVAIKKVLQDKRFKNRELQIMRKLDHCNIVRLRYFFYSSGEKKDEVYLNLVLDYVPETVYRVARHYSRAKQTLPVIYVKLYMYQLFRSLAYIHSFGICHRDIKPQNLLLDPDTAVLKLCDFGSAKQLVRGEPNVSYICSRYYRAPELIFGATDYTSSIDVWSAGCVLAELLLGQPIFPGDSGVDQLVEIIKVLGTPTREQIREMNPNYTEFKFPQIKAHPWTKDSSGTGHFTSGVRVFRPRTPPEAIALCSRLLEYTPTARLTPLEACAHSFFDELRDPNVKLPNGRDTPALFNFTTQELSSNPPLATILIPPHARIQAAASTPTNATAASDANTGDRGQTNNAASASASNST

IC50, in vitro kinase assays with GSK-3β at increasing inhibitor concentrations [nM] | inhibition of GSK-3β in in vitro kinase assays (substrate phosphorylation, no inhibitor = 100%) | Binder
~1000 |  | Myristoyl-GKEAPPAPPP[pS]P [L806-mts, Myr-GKEAPPAPPPS(p)P]
 | ~2 fold relative to L803 | KEAPPAPPA[pS]P [PQ9A (L803 variant where Gln9 was replaced by alanine)]

— patent publication US20160130303A1 (RAMOT AT TEL AVIV UNIVERSITY, published 2016)
